Measurements: paper PMC7244016, “Knock-down of the TIM/TIPIN complex promotes apoptosis in melanoma cells” (Oncotarget, 2020)

Biological target: T1, Timeless (TIM), full length, FLAG-tagged (human, UniProt Q9UNS1 1-1208)
T1 construct: expressed from pcDNA4-Flag-Timeless; The plasmid is named Flag-Timeless; the results speak of a fused 3xFLAG-tag; also called flag-TIM; pcDNA4-Flag-Timeless
T1 sequence (looked up): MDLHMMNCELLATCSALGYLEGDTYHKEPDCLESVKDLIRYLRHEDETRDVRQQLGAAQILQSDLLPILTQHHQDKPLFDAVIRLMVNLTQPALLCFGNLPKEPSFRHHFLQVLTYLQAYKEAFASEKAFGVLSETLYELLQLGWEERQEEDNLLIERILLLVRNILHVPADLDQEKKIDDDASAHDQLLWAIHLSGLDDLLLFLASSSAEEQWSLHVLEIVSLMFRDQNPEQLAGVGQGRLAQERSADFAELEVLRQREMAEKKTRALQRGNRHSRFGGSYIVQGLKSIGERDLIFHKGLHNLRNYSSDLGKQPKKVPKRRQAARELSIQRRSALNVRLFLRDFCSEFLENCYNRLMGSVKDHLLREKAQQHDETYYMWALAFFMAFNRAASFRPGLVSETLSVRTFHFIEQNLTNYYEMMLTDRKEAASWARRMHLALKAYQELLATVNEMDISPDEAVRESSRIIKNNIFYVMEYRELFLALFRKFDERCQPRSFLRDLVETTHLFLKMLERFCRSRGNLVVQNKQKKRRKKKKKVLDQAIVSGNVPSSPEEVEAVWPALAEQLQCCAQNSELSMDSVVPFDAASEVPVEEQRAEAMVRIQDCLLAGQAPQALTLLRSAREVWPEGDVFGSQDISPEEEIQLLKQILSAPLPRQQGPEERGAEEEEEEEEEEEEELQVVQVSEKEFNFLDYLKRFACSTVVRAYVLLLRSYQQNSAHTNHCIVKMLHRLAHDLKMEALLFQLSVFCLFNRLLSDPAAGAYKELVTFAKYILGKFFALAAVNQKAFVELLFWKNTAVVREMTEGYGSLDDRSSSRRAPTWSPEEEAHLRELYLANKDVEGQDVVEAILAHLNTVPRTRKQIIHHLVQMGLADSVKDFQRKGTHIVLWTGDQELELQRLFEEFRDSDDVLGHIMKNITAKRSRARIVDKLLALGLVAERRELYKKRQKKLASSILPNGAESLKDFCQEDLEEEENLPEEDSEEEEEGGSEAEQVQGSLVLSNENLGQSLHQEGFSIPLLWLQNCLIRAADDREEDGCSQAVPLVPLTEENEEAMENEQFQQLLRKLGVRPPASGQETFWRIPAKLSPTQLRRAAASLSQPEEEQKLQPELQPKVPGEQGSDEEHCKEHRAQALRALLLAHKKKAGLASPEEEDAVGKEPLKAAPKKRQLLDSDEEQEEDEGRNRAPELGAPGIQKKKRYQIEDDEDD
Experiment: SEC; complex co-expressed in 293F cells and FLAG-purified; Superose 6 column in 50 mM HEPES pH 7.8, 150 mM NaCl, 0.5 mM TCEP; peak fractions checked by SDS-PAGE/Coomassie and immunoblot with TIM and TIPIN antibodies
Details: both partners purified

stoichiometry N: 1
B1: TIM-interacting protein (TIPIN), full length, FLAG-tagged (natural protein, human, UniProt Q9BVW5 1-301, looked up)
chain: MLEPQENGVIDLPDYEHVEDETFPPFPPPASPERQDGEGTEPDEESGNGAPVRVPPKRTVKRNIPKLDAQRLISERGLPALRHVFDKAKFKGKGHEAEDLKMLIRHMEHWAHRLFPKLQFEDFIDRVEYLGSKKEVQTCLKRIRLDLPILHEDFVSNNDEVAENNEHDVTSTELDPFLTNLSESEMFASELSRSLTEEQQQRIERNKQLALERRQAKLLSNSQTLGNDMLMNTPRAHTVEEVNTDEDQKEESNGLNEDILDNPCNDAIANTLNEEETLLDQSFKNVQQQLDATSRNITEAR
notes: expressed from pcDNA3-Flag-Tipin; also called flag-TIPIN; pcDNA3-Flag-Tipin
